Laboratory results taken from the DeepSol protein solubility set.

experiment: soluble on expression in E. coli; label from the status in PepcDB or PDB records

Sequence | soluble on expression in E. coli
RVSLLKRKYKRVTTIAERTRRAQSETDRRNYTAASKARTQAQRSSKPQRTRASSRSRRDNSVTVEELMRRRQEQQQTGAKSFAPRPTRTAAQREAAERDLTRRLVNPDPEIHRTRTFDDDLYS | not soluble
MANPLYQKHIISINDLSRDDLNLVLATAAKLKANPQPELLKHKVIASCFFEASTRTRLSFETSMHRLGASVVGFSDSANTSLGKKGETLADTISVISTYVDAIVMRHPQEGAARLATEFSGNVPVLNAGDGSNQHPTQTLLDLFTIQETQGRLDNLHVAMVGDLKYGRTVHSLTQALAKFDGNRFYFIAPDALAMPQYILDMLDEKGIAWSLHSSIEEVMAEVDILYMTRVQKERLDPSEYANVKAQFVLRASDLHNAKANMKVLHPLPRVDEIATDVDKTPHAWYFQQAGNGIFARQALLALVLNRDLVL | soluble
MGSQKRLVQRVERKLEQTVGDAFARIFGGSIVPQEVEALLRREAADGIQSLQGNRLLAPNEYIITLGVHDFEKLGADPELKSTGFARDLADYIQEQGWQTYGDVVVRFEQSSNLHTGQFRARGTVNPDVETHPPVIDCARPQSNHAFGAEPGVAPMSDNSSYRGGQGQGRPDEYYDDRYARPQEDPRGGPDPQGGSDPRGGYPPETGGYPPQPGYPRPRHPDQGDYPEQIGYPDQGGYPEQRGYPEQRGYPDQRGYQDQGRGYPDQGQGGYPPPYEQRPPVSPGPAAGYGAPGYDQGYRQSGGYGPSPGGGQPGYGGYGEYGRGPARHEEGSYVPSGPPGPPEQRPAYPDQGGYDQGYQQGATTYGRQDYGGGADYTRYTESPRVPGYAPQGGGYAEPAGRDYDYGQSGAPDYGQPAPGGYSGYGQGGYGSAGTSVTLQLDDGSGRTYQLREGSNIIGRGQDAQFRLPDTGVSRRHLEIRWDGQVALLADLNSTNGTTVNNAPVQEWQLADGDVIRLGHSEIIVRMH | soluble
AISQDYNINMSGGNDKGTYYAGLGYNRQEGLPIKTFYERYSFVLNASYKITDWLTSSSNFNYNRANWKNMPGSQTSEGNYFGRIMSTPPTVRFQDEDGNPTLGPVAGDGNQNYQPDKWWNFNQSDKFTMVQAFQIDILKNLSVKGTANWYYSESLAESFTRDYENTPGQFVRTRSSSASFSRNFSQTYNVVLNYNQTFAKDHNVAVMLGMEYFDRYSRSFSASGSGAPTDDFADLSLTDNGEGKRSIDSGHSDYRILSYFGRLNYDYKGRYLLSAVFRQDGYSSLLGDNRWGFFPGVSAGWIFGQENFVKNALPFLSFGKLRASYGVNGNATGIGAYDLQGSYNSQKYNGNVGFLIGALPNPGLKWEKTRTAEVGIDMSFFENRLNANFTYYNRLTSDKYANLSLPSTTGFSSIKNNNGKFRNSGVEIELSGKILKTKDWSWDLGGNISFNKNKIVSLPDNGLIRNQQDAAQIYSGRQLSDGTYEKIWVGGNQEGYEPGVLIAYKADGLYRSWDEIPGDLVVTSGNYFGKKMYGPEAWKKLSSAEQKNALPIQPGDVKWRDINGDGMIDNYDQVVVGNTNPHWIGGFNTTLRWKNFQLYGRFDFAFDYWIYDNTTPWFLGCMQGTYNTTKDVFNTWSEENPNAKYPRFVYADQLMNANYYRTSTLFAYKGNYLAIREISLSYSLPKAWANKAYCQKVDVSITGQNLGYITSANVASPEVSSAGSGYALPRTLLFGLNVTF | not soluble
MGSDKIHHHHHHMRISLGPLVYCWQKQQVMAFYQQVAASQIPLVYLGEAVCSRRRELKWGDYFELARMLKQAGKEVVISTLALIEASSEYTELKRQVDNGEFMIEANDMAAVYLAKEHKLPFVCGASINNYNRASLDILHGFGMQRFVMPVELSKAWLQHVIQNKPAFEVEVFGHGYLPLAHSARCFTARHKQLTKDSCETICRQYSKGLLAQTQEMQPLLRLNGIQTQSAACLDLSSEIAAMNTMGVDVFRVSPSGTESIVRAESLIEALNMPEMALNAPIKGEQCDGYWFGEAGLTIHHAT | not soluble
MSLSCLFLQSAGEMLQNCAQSNCRIIPKKLRDMKREEICRLLADKVNKLKNKENSLSELLPDVRLLYGETPFARTPVMYEPGIIILFSGHKIGYINERVFRYDANEYLLLTVPLPFECETYATSEVPLAGLRLNVDILQLQELLMDIGEDEHFQPSMAASGINSATLSEEILCAAERLLDVMERPLDARILGKQIIREILYYVLTGPCGGALLALVSRQTHFSLISRVLKRIENKYTENLSVEQLAAEANMSVSAFHHNFKSVTSTSPLQYLKNYRLHKARMMIIHDGMKASAAAMRVGYESASQFSREFKRYFGVTPGEDAARMRAMQGNEGHHHHHH | soluble
MEGLFNAIKDTVTAAINNDGAKLGTSIVSIVENGVGLLGKLFGF | soluble
MSLITDGIMHKVREVYQLLRKEPGIIVGVSNRHVHLSREDLETLFGEGYELTPVKELRQPGQYAAKETVTIVGPKGAIENVRVLGPVRKETQVEISRTDAFRLGVRPPVRDSGDLEGTPGIVIIGPNGILVKEKGVIIAKRHIHMHPKDAEYYGVKDKDIVKVIVESGDRRLIFDDVLIRVREDFALEFHVDTDEANAAMLNTGDLVYIVEFEGGSHHHHHH | soluble
MAIKDLFNNFFLMDDEEEVESPEERQRRVVQNEENETNNVQQNQPQQSERSYSNQSKLKTVPQKKTTRNYNSEERNVRMNQPPSKSNGKNVVTMNQTSQSYSGYESSKMCLFEPRVFSDTQDIADELKNRRATLVNLQRIDKISAKRIIDFLSGTVYAIGGDIQRVGTDIFLCTPDNVEVAGSITDHIEQMESQHYELEHHHHHH | not soluble
MAGDPMGNNNSTKESTHDNHSDSSTHEEMDHSGSADVPEGLQESKNPKYKVGSQVIINTSHMKGMKGAEATVTGAYDTTAYVVSYTPTNGGQRVDHHKWVIQEEIKDAGDKTLQPGDQVILEASHMKGMKGATAEIDSAEKTTVYMVDYTSTTSGEKVKNHKWVTEDELSAKLEHHHHHH | soluble
MGSDKIHHHHHHMNKNQYPKWEELPELDLYLDQVLLYVNQLINPKTITNDKLLTASMINNYVKHNYISKPIKKKYNRRQVARLIVITAFKQVFAIQEISQTLELLTADNHSEEAYNGFAACMNKEEVHDLPPVVISACQTLNLYQETQKLVLELGGKNKNA | not soluble
MGSDKIHHHHHHMAINYGVFTISLDFEMYWGVRDKRAISDYAVNLEGIRPAIAGMLDIFTEFNVHATWATVGFLFFRNSEHLSANLPKAIPTYTDINLSPYEYIKNKKLDDRYHFAPDLIQKIISTSGQEVASHTFSHYYCLEDGQTIDQFESDLALAVDTASRLGYKLSSLVFPRNQWNSEYLSVLNKYNIKSFRGNELNWMNSASGQEGQSYFKRAARLLDSYINISGFNTHDISTCLENKPFNFPSSRFLRPYNKKLSFFDCLKLRRIKKAMTHAAKNNELFHLWWHPHNFGAETSKNLDMLREILDHYQYLNKNFGMRSLNMEELSFLEKAYD | not soluble
MSSQPKLRILCLHGYRQCDQSFRQKTGSTRKLVKSLAEFEFVNGVHSVAVDEHVDSSRAWWFSNNEAMSFSSRESTEVAVGFEESVAAVVKFIEENGPFDGLLGFSQGASMVHLLIAKAQLGEIKLPGIRFAIFFSGFLSLSSKHDSLTLLRIKEFPSMHVFGDADEIVARPKSEKMADMFDVEPLRIAHDGGHVVPSMSKHKEKIAGFMREQLDRKIENN | not soluble
ARSAYSYIREAWKRPKEGQIAELMWHRMQEWRNEPAVVRIERPTRLDRARSLGYKAKQGIIVVRVAIRKGSSRRTRFNKGRRSKRMMVNRITRKKNIQRIAEERANRKFPNLRVLNSYSVGEDGRHKWHEVILIDPDHPAIKSDDQLSWISRTRHRLRTFRGLTSAGRRCRGLRGQGKGSEKVRPSLRVNGAKA | soluble
YMVPGLWGAPLKAVSAFAPPMKTQDFNLYTNEVHAKFDDYDLGMEYARQHNKPVMLDFTGYGCVNCRKMELAVWTDPKVSSIINNDYVLITLYVDNKTPLTEPVKIMENGTERTLRTVGDKWSYLQRVKFGANAQPFYVLIDNEGNPLNKSYAYDEDISKYINFLQTGLENYRKEK | not soluble
DGYIGVMIDDLVTKGTIEPYRLLTSRAEYRLILRHDNADMRLTEMGREIGLVDDERWARFEIKKNQFDNEMKRLDSIKLKPVKETNAKVEEMGFKPLTDAVTAKEFLRRPEVSYQDVVAFIGPAAEDLDDKIIELIETEIKYEGYISKAMDQVAKMKRMEEKRIPANIDWDDIDSIATEARQKFKLINPETIGQASRISGVNPADISILMVYLEG | not soluble
MNLGQTLVGIATWPARAGLAAADTGLNMAGAAVDMAKQALGDAGGASGSTSMANMLGIDDTIARANRLARLLDDDMPLGRAIAPNGPMDRMLRPGGVVDLLTQPGGLLDRLTAEGGAMQRALQPGGLADQLLAEDGLIERVLSEDGLADRLLAEGGLIDKITAKDGPLEQLADVADTLARLTPGMEALEPAIATLQDAVIALTMVVNPLSSIAERIPLPGRRPARRSSSRSVRSQRVVDSE | not soluble
MSLETQWTRMTADEAAEIIQHNDMVAFSGFTPAGSPKALPTAIARRANEQHEAKKPYQIRLLTGASISAAADDVLSDADAVSWRAPYQTSSGLRKKINQGAVSFVDLHLSEVAQMVNYGFFGDIDVAVIEASALAPDGRVWLTSGIGNAPTWLLRAKKVIIELNHYHDPRVAELADIVIPGAPPRRNSVSIFHAMDRVGTRYVQIDPKKIVAVVETNLPDAGNMLDKQNPMCQQIADNVVTFLLQEMAHGRIPPEFLPLQSGVGNINNAVMARLGENPEIPPFMMYSEVLQESVVHLLETGKISGASASSLTISADSLRKIYDNMDYFASRIVLRPQEISNNPEIIRRLGVIALNVGLEFDIYGHANSTHVAGVDLMNGIGGSGDFERNAYLSIFMAPSIAKEGKISTVVPMCSHVDHNEHSVKVIITEQGIADLRGLSPLQRARTIIDNCAHPMYRDYLHRYLENAPGGHIHHDLSHVFDLHRNLIATGSMLGEGHHHHHH | soluble
MSAEQVWQGNFEQLCLFHNLQGRWPGCREGALGRWCTIQRRDYRKGNMSDERKAQLERIGFPLALEHHHHHH | not soluble
SFSSLPLTGENPGAWALVRDNSAKGITAGSGSQQTTYDPTRTEAALTASTTFALRRYDLAGRALYDLDFSKLNPQTPTRDQTGQITFNPFGGFGLSGAAPQQWNEVKNKVPVEVAQDPSNPYRFAVLLVPRSVVYYEQLQRGLGLPQQRTESGQNTSTTGAMFGLKVKNAEADTAKSNEKLQGAEATGSSTTSGSGQSTQRGGSSGDTKVKALKIEVKKKSDSEDNGQLQLEKNDLANAPIKRSEESGQSVQLKADDFGTALSSSGSGGNSNPGSPTPWRPW | soluble
MTTPLAQRIKSLIRLNGPLSVTDFFSLCLADPEHGYYKSREPFGRSGDFITAPEVSQLFGEMLGVFVVHAWQRHGAPAQTQLVEIGPGRGTMMSDMLRVIRRIAPPLYETMRVHLVETSPRLSAIQKETLTAHADRLTWHDSFDDVPEGFLLLVANELFDAIPIRQFVRTPQGFRERVVSLDANGELVFSTGLAGIDPTLLPPQPERQQLGTVFEVSPAREAVMTAICQRLSVHGGTALAIDYGHLVAGYGDTLQAMRNHAFDPPLAHPGEADLTSHVDFESLVKTAQATGVHVNGALRQGDFLHGLGLKERASALAAKATPDQTLEIAEAVNRLAGEGAGKMGELFKVIAVSSPALHLLPFRAVDLEHHHHHH | soluble
MGSDKIHHHHHHMRKAGESMKEFISLKIDYAFKLIFGKEGNEAILIAFLNAALKLPQERRIEAITIMNPELNKEYQGDKKSILDVRAETSEGMQINIEIQLSNQYDMEKRSLYYWAEMYSRQIREGMAYKELAKAVTINILDFNYLKQTSNYHNVFHLYEDEEKFQLTDALEMHFMELPKLLAKWRNREISPWENELVRWLLLLEGADNQEILQTLEEIAMKDPVLHQAMTAWEETSDDPRIREAYFDRRKAVLDEKAAIREAELRLKEALEKGRAAGIAAGKAEGKAEVAKKLLDLGFEITKVAEATGLSEKDIRSLKD | not soluble
